Source: US20240092867A1 (UNIVERSITY OF CHICAGO, published 2024)

T1: placental growth factor (PlGF)-2 (human, UniProt P49763-3 19-170)
T1 construct: mature; Purchased in mature form
T1 sequence (looked up): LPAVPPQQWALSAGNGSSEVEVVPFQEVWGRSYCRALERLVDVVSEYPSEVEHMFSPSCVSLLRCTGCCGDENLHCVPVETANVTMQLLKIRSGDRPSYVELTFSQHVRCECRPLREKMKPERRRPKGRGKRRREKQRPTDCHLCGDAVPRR

T2: vascular endothelial growth factor (VEGF)-A121 (human, UniProt P15692-9 27-147)
T2 construct: mature; Purchased in mature form, not glycosylated
T2 sequence (looked up): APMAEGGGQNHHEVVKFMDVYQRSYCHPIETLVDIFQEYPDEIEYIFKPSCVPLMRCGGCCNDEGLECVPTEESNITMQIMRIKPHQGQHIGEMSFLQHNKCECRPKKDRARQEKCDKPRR

T3: recombinant laminin α3 2928-3150 protein (linker domain and LG4 domain) (human, UniProt Q16787 2928-3150)
T3 construct: range 2928-3150; Made in HEK-293F cells; also called laminin alpha 3 LG domain recombinant protein
T3 sequence: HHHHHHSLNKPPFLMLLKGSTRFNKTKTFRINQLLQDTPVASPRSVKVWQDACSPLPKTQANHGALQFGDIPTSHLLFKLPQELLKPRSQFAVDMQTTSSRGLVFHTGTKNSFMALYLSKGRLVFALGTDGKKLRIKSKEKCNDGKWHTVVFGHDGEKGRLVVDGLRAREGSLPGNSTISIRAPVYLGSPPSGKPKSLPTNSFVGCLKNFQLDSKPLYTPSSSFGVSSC

B1: FabCol-LamLG4 recombinant fusion protein (Fab)
light: EIVLTQSPGTLSLSPGERATLSCRASQSVSSSYLAWYQQKPGQAPRLLIYGASSRATGIPDRFSGSGSGTDFTLTISRLEPEDFAVYYCQQAIGFPQTFGQGTKVEIKRTVAAPSVFIFPPSDEQLKSGTASVVCLLNNFYPREAKVQWKVDNALQSGNSQESVTEQDSKDSTYSLSSTLTLSKADYEKHKVYACEVTHQGLSSPVTKSFNRGEC
heavy: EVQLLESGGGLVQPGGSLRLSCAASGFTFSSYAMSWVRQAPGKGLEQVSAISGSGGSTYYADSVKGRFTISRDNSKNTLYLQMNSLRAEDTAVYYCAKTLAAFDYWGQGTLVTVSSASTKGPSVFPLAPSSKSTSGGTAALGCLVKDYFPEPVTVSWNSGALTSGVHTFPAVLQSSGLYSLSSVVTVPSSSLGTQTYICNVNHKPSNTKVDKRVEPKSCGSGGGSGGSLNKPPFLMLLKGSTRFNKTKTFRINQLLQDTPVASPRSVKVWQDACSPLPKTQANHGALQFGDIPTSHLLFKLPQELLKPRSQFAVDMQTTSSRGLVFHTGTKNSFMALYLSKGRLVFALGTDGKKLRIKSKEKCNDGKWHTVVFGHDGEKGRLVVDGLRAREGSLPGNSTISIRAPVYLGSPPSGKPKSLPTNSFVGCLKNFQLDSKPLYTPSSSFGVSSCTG
B2: placental growth factor (PlGF)-1 (ligand, human, UniProt P49763-2 19-149, looked up)
chain: LPAVPPQQWALSAGNGSSEVEVVPFQEVWGRSYCRALERLVDVVSEYPSEVEHMFSPSCVSLLRCTGCCGDENLHCVPVETANVTMQLLKIRSGDRPSYVELTFSQHVRCECRPLREKMKPERCGDAVPRR
notes: mature; Purchased in mature form

Assays:
recombinant human BMP-2 = biological target: T4, recombinant human BMP-2 (human, UniProt P12643 283-396); assay: ELISA, rhBMP-2 coated 50 nM, binder 50 nM
T4 construct: also called rhBMP-2
T4 sequence (P12643 283-396 limits assumed): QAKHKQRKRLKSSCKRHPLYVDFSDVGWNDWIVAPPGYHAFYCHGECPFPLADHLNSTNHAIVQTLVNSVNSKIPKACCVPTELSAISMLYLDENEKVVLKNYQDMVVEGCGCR
Method: ELISA plates (NUNC MaxiSorp) were coated with 50 nM of recombinant human BMP-2 (CHO produced, R&D Systems, Minneapolis MN, USA) overnight at room temperature.

[1] = biological target: B2; assay: ELISA; growth factors coated at 100 nM, FabCol variants at 100 nM in solution, HRP-anti-human Fab [panel F]
[2] = biological target: T5, vascular endothelial growth factor (VEGF)-A165 (human, UniProt P15692-4 27-191); assay: as above
T5 construct: mature; Purchased in mature form, not glycosylated

[3] = biological target: T1, placental growth factor (PlGF)-2; assay: as above
[4] = biological target: T6, platelet-derived growth factor (PDGF)-BB (human, UniProt P01127 82-190); assay: as above
T6 construct: mature; Purchased in mature form
T6 sequence (P01127 82-190): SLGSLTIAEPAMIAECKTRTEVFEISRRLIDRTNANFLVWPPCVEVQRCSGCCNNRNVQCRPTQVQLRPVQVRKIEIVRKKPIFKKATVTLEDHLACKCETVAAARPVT

bovine type I collagen = biological target: T7, bovine type I collagen (bovine, UniProt P02453 178-1191; P02465 89-1102); assay: ELISA, collagen I coated, 0.01-30 nM binder
T7 construct: PureCol, Advanced BioMatrix; coated on the plate; also called collagen I; PureCol
T7 sequence (P02453 178-1191, chain 1 of 2): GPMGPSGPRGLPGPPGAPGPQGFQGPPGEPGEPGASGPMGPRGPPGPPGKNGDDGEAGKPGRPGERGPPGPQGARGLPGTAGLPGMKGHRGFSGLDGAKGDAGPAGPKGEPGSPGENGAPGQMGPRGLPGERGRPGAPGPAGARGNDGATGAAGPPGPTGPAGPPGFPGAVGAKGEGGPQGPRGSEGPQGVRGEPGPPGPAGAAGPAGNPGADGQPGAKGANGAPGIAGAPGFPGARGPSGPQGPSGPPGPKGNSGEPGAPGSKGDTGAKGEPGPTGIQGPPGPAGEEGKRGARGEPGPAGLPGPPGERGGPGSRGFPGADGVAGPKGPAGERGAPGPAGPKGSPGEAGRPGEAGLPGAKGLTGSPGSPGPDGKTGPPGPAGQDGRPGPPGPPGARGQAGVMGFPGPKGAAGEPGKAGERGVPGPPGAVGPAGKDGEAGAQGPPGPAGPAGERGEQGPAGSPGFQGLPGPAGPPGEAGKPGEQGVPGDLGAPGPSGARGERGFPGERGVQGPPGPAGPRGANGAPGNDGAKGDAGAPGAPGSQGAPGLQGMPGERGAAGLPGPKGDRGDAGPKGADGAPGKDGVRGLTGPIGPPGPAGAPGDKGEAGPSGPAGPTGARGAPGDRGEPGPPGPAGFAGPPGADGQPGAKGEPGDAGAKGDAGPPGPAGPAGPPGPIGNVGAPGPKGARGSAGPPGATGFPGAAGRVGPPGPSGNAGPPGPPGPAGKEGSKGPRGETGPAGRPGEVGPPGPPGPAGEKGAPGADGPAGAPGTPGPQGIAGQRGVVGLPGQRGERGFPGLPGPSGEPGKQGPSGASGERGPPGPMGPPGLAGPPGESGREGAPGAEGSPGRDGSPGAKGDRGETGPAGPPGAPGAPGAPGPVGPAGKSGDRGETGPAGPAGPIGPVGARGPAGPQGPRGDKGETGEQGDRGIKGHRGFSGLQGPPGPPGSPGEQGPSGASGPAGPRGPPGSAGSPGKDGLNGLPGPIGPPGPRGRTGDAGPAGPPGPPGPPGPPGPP
T7 sequence (P02465 89-1102, chain 2 of 2): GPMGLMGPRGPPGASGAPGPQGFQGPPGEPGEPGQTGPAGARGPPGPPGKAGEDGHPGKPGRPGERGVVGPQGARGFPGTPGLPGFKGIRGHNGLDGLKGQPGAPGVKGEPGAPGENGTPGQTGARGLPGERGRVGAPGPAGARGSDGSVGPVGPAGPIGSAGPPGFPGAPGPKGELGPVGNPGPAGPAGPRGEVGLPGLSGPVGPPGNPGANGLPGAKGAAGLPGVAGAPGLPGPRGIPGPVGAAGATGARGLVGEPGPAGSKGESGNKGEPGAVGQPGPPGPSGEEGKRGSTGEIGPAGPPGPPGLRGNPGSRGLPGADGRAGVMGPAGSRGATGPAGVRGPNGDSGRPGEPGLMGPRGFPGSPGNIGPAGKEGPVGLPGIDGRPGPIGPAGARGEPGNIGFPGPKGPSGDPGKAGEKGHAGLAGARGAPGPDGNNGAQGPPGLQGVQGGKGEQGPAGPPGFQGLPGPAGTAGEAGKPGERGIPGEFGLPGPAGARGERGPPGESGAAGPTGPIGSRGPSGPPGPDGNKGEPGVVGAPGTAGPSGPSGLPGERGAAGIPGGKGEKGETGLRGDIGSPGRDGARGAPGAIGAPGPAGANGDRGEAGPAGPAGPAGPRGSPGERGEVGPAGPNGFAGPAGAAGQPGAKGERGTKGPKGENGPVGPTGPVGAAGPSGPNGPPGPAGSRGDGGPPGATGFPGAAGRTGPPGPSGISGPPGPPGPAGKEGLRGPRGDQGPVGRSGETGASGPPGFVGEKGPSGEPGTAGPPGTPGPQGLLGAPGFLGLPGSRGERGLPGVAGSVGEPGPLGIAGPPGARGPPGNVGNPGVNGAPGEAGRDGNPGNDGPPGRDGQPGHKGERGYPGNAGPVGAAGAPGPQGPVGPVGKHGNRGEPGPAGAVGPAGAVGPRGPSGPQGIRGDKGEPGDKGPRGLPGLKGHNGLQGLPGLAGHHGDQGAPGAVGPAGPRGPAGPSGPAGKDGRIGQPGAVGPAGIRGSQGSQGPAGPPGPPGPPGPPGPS
Method: ELISA plates (NUNC MaxiSorp, ThermoFisher Scientific) were coated overnight with 10 μg/mL of bovine type I collagen (PureCol, Advanced BioMatrix, San Diego CA, USA) at room temperature. The plate was further blocked using 2% bovine serum albumine (BSA) for 2 h at room temperature. […] The plate was washed thrice in PBST, and an horseradish peroxidase-conjugated anti-human Fab antibody (Jackson ImmunoResearch,) was used to detect bound FabCol variants. […] Absorbance at 450 nm was read using […], and corrected using the absorbance at 570 nm. Curve fits and dissociation constant KD were computed using Prism (GraphPad Software Inc., USA).

[5] = biological target: T6, platelet-derived growth factor (PDGF)-BB; assay: ELISA; peptide coated (10 µg/mL, legend paragraph 53), GF in solution, BSA-coated wells as control [panel E]
Method: (§1) (A) The location of laminin-derived peptides in the LG domain of laminin α3, α4, and α5 chains. (B-F) Affinity of heparin and GFs against chemically synthesized peptides derived from the LG domain of laminin α3, α4, and α5 chains. ELISA plates were coated with 10 μg/mL laminin peptide and further incubated with (B) biotinylated heparin, (C) VEGF-A165 and VEGF-A121, (D) PlGF-2 and PlGF-1, (E) PDGF-BB, or (F) FGF-2. Concentrations were 1 μg/mL for GFs and 10 μg/mL for heparin. Bound heparin was detected with streptavidin, and bound GFs with a specific antibody for each GF (n=4, mean±SEM). Statistical analyses were done using the Mann-Whitney U test by comparing the signals obtained from the laminin peptide- and the BSA-coated wells. *p<0.05, **p<0.01.
(§2) ELISA tests were performed as described above. […] 1 μg/mL of BSA served as non-binding protein control. After blocking with 2% BSA PBS-0.05% Tween 20 (PBS-T) solution, 1 μg/mL of the recombinant human proteins (VEGF-A121, VEGF-A165, PlGF-1, PlGF-2, PDGF-BB or FGF-2) or 10 μg/mL of biotinylated heparin (Sigma-Aldrich) were added. Bound GF was detected with biotinylated antibodies for human VEGF, PlGF, PDGF-BB, or FGF-2 (R&D Systems). The antibodies were detected by streptavidin-HRP (R&D Systems).

[6] = biological target: T5, vascular endothelial growth factor …; assay: ELISA, peptide coated, GF 1 µg/mL
Method: as §1, §2

[7] = biological target: T2, vascular endothelial growth factor …; assay: ELISA, peptide coated
Method: as §1, §2

[8] = biological target: B2; assay: ELISA, peptide coated
Method: as §1, §2

[9] = biological target: T1, placental growth factor (PlGF)-2; assay: ELISA; peptide coated (10 µg/mL, legend paragraph 53), GF in solution, BSA-coated wells as control [panel D]
Method: as §1, §2

laminin-511 = biological target: T8, laminin-511 (human, UniProt O15230 36-3695; P07942 22-1786; P11047 34-1609); assay: ELISA, GF coated, laminin 10 nM
T8 construct: Full-length recombinant human laminin isoform (BioLamina); chains read from the isoform name
Method: (§3) ELISA tests were performed as previously reported. In brief, ELISA plates (med-binding, Greiner Bio-One) were coated with 50 nM GFs at 37° C. for more than 2 hrs. […] Bound laminin was detected with rabbit anti-human laminin γ1 chain antibody (1:1000 dilution, Assay biotech) or rabbit anti-human laminin α3 chain antibody (1:1000 dilution, Assay biotech). After incubation with biotinylated anti-rabbit antibody for 60 min at room temperature (RT), HRP conjugated streptavidin (Jackson ImmunoResearch) was added. After 60 min of incubation at RT, 50 μL TMB substrate (Sigma-Aldrich) was added. The reactions were stopped by adding 25 μL of 2 N H₂SO₄. Subsequently, the absorbance at 450 nm was measured with a reference of 570 nm.

laminin-111 = biological target: T9, laminin-111 (human, UniProt P25391 18-3075; P07942 22-1786; P11047 34-1609); assay: ELISA, GF coated, laminin 10 nM
T9 construct: Full-length recombinant human laminin isoform (BioLamina); Chain composition is read from the isoform name
Method: as §3

laminin-211 = biological target: T10, laminin-211 (human, UniProt P24043 23-3122; P07942 22-1786; P11047 34-1609); assay: ELISA, GF coated, laminin 10 nM
T10 construct: Full-length recombinant human laminin isoform (BioLamina); chains read from the isoform name
Method: as §3

laminin-421 = biological target: T11, laminin-421 (human, UniProt Q16363 25-1823; P55268 33-1798; P11047 34-1609); assay: ELISA, GF coated, laminin 10 nM
T11 construct: Full-length recombinant human laminin isoform (BioLamina); chains read from the isoform name
Method: as §3

laminin-332 = biological target: T12, laminin-332 (human, UniProt Q16787 28-1724; Q13751 18-1172; Q13753 22-1193, limits assumed); assay: ELISA, GF coated, laminin 10 nM
T12 construct: Full-length recombinant human laminin isoform (BioLamina); chains read from the isoform name
Method: as §3

laminin-411 = biological target: T13, laminin-411 (human, UniProt Q16363 25-1823; P07942 22-1786; P11047 34-1609); assay: ELISA, GF coated, laminin 10 nM
T13 construct: Full-length recombinant human laminin isoform (BioLamina); chains read from the isoform name
Method: as §3

laminin-521 = biological target: T14, laminin-521 (human, UniProt O15230 36-3695; P55268 33-1798; P11047 34-1609); assay: ELISA, GF coated, laminin 10 nM
T14 construct: Full-length recombinant human laminin isoform (BioLamina); chains read from the isoform name
Method: as §3

[10] = biological target: T3, recombinant laminin α3 2928-3150 …; assay: ELISA, LG domain protein coated
Method: Affinity of GFs against recombinant laminin LG domains. ELISA plates were coated with 1 μg/mL (A) α3₂₉₂₈₋₃₁₅₀, (B) α4₈₂₆₋₁₈₁₆, or (C) α5₃₀₂₆₋₃₄₈₂ and further incubated with 1 μg/mL of VEGF-A165, VEGF-A121, PlGF-2, PlGF-1, PDGF-BB, or FGF-2 solution. Bound GFs were detected using a specific antibody for each GF (n=4, mean±SEM). Statistical analyses were done using the Mann-Whitney U test by comparing the signals obtained from the laminin domain- and the BSA-coated wells. *p<0.05, **p<0.01. […] A SPR chip was functionalized with the laminin α3₂₉₂₈₋₃₁₅₀ recombinant protein (˜1000 RU), and each GF was flowed over the chip at indicated concentrations. Curves represent the specific responses (in RU) to laminin. Experimental curves were fitted with Langmuir binding kinetics.
as §2

[11] = biological target: T15, recombinant human vWF A1 domain (human, UniProt P04275 1261-1468, limits assumed); assay: ELISA; recombinant vWF A1 domain coated (10 µg/mL, legend paragraph 67), GF in solution, detected with anti-PlGF antibody [panel B]
T15 construct: domain: A1; also called vWF A1 recombinant protein; recombinant A1 domain
Method: FIGS. 18A-C. […] Bound GFs were detected using a specific antibody for each GF (n=4, mean±SD). Statistical analyses were done using ANOVA with Tukey's test or Student's t-test. *p<0.05, **p<0.01.
ELISA tests were performed as described above. […] After blocking with 2% BSA solution containing PBS-T, 1 μg/mL of the recombinant human proteins VEGF-A121, VEGF-A165, PlGF-1, PlGF-2, PDGF-BB, FGF-2, CXCL-12α and CXCL-12γ were added. 1 μg/mL of BSA served as non-binding protein control. Bound GF or chemokine was detected with biotinylated antibodies for human VEGF-A, PlGF, PDGF-BB, FGF-2, or CXCL-12 (R & D Systems). The antibodies were detected by streptavidin-HRP (R & D Systems). Color development and the absorbance measurement were done as described above.

human plasma-derived vWF = biological target: T16, human plasma-derived vWF (human, UniProt P04275 764-2813); assay: ELISA, GF coated 50 nM, vWF 1 µg/mL
T16 construct: mature; also called plasma-derived purified vWF; von Willebrand factor
Method: ELISA tests were performed as previously reported1. In brief, ELISA plates (med-binding, Greiner Bio-One) were coated with 50 nM GFs at 37° C. for 2 hrs. […] Then, HRP conjugated goat anti-rabbit antibody (Jackson ImmunoResearch) was added. After 60 min of incubation, 50 μL TMB substrate (Sigma-Aldrich) was added. The reaction was stopped by adding 25 μL of 2N H2SO4. Subsequently, the absorbance at 450 nm was measured and subtracted the absorbance at 570 nm.

## B1
Recombinant human BMP-2
  binding result: binds
[1]
  binding result: no binding (tested: 100 nM (single concentration))
[2]
  binding result: binds
[3]
  binding result: binds
[4]
  binding result: binds
Bovine type I collagen
  Kd: ~2.3 nM

## KNSFMALYLSKGR (Chemically synthesized (Genscript)) [laminin α3 3031-3043 peptide (LG4)]
[5]
  binding result: no binding (tested: 1 µg/mL PDGF-BB (single concentration))
[6]
  binding result: binds
[7]
  binding result: no binding (tested: 1 µg/mL)
[8]
  binding result: no binding (tested: 1 µg/mL)
[9]
  binding result: no binding (tested: 1 µg/mL PlGF-2 (single concentration))

## B2
laminin-511
  binding result: no binding (tested: A450 0.1)
laminin-111
  binding result: no binding (tested: A450 0.1)
laminin-211
  binding result: no binding (tested: A450 0.1)
laminin-421
  binding result: no binding (tested: A450 0.1)
laminin-332
  binding result: no binding (tested: A450 0.1)
laminin-411
  binding result: no binding (tested: A450 0.1)
laminin-521
  binding result: no binding (tested: A450 0.1)
[10]
  binding result: no binding (tested: 1 µg/mL)
[11]
  binding result: no binding (tested: 1 µg/mL PlGF-1 (single concentration))
Human plasma-derived vWF
  binding result: no binding
